Consider one substance from publication PMC11570694.

The Ki is a measure of affinity in units of concentration, obtained from inhibition or displacement. A high value points to weaker binding. One may read the Kd as the constant that tells how readily two partners part at equilibrium.

The target in assay [1] is endogenous TTC5 of rabbit reticulocyte lysate (rabbit (endogenous in rabbit reticulocyte lysate)) (UniProt G1SNQ6). Description: cross-linking; competition: porcine brain tubulin at the indicated concentrations added to isolated β-tubulin 94-mer RNCs (Bpa at position 7) carrying endogenous TTC5, 10 min on ice in PSB, then UV; autoradiography, anti-TTC5 immunoprecipitation.

For assay [2], the target named is recombinant TTC5 labelled with Oregon Green 488 maleimide (human) (UniProt Q8N0Z6). Description: MST; 50 nM Oregon Green 488-labelled TTC5 with various porcine tubulin concentrations in 250 mM NaCl, 1 mM TCEP, 20 mM HEPES pH 7.4; duplicates.
Chain of recombinant TTC5 labelled with Oregon Green 488 maleimide (human) (Q8N0Z6 whole entry): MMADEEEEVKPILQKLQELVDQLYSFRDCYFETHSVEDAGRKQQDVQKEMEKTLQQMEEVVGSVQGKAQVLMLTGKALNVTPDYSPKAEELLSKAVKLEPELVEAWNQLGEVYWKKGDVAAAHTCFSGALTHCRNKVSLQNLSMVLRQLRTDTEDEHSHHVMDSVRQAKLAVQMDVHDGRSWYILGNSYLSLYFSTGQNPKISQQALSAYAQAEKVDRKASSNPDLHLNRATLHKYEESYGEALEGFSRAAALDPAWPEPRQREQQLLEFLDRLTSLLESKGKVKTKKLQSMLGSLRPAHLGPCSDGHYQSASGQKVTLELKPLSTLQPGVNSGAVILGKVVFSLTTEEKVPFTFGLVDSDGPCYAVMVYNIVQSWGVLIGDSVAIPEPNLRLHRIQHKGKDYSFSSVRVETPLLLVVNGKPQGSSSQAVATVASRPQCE

Chain of endogenous TTC5 of rabbit reticulocyte lysate (rabbit (endogenous in rabbit reticulocyte lysate)) (G1SNQ6 entry or part of it): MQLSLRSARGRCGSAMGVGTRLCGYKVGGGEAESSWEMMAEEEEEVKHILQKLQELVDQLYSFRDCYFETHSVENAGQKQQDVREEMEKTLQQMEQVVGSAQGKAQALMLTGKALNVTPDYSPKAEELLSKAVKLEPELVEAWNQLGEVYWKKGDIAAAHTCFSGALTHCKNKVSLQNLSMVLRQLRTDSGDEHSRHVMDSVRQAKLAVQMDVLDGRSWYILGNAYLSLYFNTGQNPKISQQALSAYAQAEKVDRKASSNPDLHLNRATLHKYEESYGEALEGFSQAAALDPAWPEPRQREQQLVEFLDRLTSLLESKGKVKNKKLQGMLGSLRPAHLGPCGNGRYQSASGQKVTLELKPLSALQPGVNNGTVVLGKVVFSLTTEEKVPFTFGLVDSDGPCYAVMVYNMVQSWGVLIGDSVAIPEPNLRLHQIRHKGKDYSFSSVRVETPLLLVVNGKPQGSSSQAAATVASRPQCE

As for “porcine brain αβ-tubulins (from UniProt P02550 1-451; Q767L7 1-444) (complex)”, in assay [1], the Ki worked out at 0.5 µM. For the same substance, the Kd in assay [2] was 0.5 µM.
